Assay results as given in PMC10899662, “TopBP1 utilises a bipartite GINS binding mode to support genome replication” (Nature Communications, 2024).
Residues, ends and D or L forms follow the SMILES beside them. No end group written: not given here. *: point of attachment. 5FAM = O=C1OC2(c3ccc(O)cc3Oc3cc(O)ccc32)c2ccc(C(=O)*)cc21; Flu = fluorescein

What was measured:
[1] = molecular target: GINS (6xHis-3xFlag-Sld5, Psf1, Psf2, Psf3) for pulldown experiments (UniProt Q9BRT9)
GINS tetramer = molecular target: T1, GINS tetramer (Homo sapiens, UniProt Q14691+Q9BRT9+Q9BRX5+Q9Y248); test: Fluorescence polarisation of fluorescein-labelled GINI-core peptides with GINS; assay type: binding; conditions: room temperature
T1 construct: made in house; host or cells: SF9 insect cells, single baculovirus made with pBig1a
T1 sequence (Q14691 whole entry): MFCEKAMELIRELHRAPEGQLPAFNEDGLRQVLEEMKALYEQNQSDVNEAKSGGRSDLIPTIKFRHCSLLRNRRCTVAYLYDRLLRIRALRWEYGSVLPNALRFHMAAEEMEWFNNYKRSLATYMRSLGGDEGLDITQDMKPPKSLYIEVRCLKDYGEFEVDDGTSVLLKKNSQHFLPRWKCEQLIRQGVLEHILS
T1 sequence (Q9BRX5 whole entry): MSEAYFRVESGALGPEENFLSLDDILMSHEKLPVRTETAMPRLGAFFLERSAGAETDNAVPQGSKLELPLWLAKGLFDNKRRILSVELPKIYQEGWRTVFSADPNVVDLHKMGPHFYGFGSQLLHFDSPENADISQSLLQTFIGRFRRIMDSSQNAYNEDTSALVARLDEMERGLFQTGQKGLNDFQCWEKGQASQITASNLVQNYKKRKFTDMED
T1 sequence (Q9Y248 whole entry partner): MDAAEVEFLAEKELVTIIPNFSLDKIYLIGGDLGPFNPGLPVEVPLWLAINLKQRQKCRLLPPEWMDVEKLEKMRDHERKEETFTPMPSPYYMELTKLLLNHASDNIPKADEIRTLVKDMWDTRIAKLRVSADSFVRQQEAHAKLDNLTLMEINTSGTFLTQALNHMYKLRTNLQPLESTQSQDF
T1 sequence (Q9BRT9 whole entry partner): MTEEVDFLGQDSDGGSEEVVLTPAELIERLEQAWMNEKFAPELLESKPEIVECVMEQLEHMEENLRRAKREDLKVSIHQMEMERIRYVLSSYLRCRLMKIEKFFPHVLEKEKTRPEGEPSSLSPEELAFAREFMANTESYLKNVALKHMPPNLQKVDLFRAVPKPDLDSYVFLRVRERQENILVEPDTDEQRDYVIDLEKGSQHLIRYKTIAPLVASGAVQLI
Excerpt: As the predicted interface between the TopBP1-GINI region and GINS[32] was not evident in our cryo-EM map we used additional interaction experiments to validate a role for this motif in GINS binding. The GINI region had been loosely defined as sitting between TopBP1-BRCT3 and BRCT4 (Fig. 1a(i)). […] We mutated this core, and other regions of conservation, to generate the mutants TopBP1-Gcc (GINI centre core), Gcore (GINI core) and RI-III (regions I-III) (Fig. 3a, Supplementary Fig. 7). […] To test if this helix constituted a GINS-interaction surface, we used fluorescence polarisation (FP). A fluorescently labelled GINI-core peptide (Ala478-Gly497) bound the GINS tetramer with a dissociation constant of Kd of ~8 µM (Fig. 3d). […] We therefore concluded that the GINI region is a GINS interaction site in its own right, but with moderate binding affinity.
Fig. 3 The conserved core of the TopBP1-GINI domain is required for a stable interaction with GINS. a Domain model and T-COFFEE alignment (one-letter aa code) of TopBP1 proteins from humans (Q92547) Xenopus laevis (Q7ZZY3), Bos taurus (A0A3Q1LWE4) and Rattus norvegicus (A0A8I6GFZ6). […] Source data are provided as a Source data file. d Fluorescence polarisation measurements including dissociation constants (kD) calculations using recombinant GINS tetramer and fluorescently labelled TopBP1-GINI-core peptides (WT or Gpp (a)). […]

[2] = molecular target: T2, GINS (HIS-(3C)-Sld5, Psf1, Psf2, Psf3) for structural and fluorescence polarisation studies (UniProt Q9BRT9 1-223; Q14691 1-196; Q9Y248 1-185; Q9BRX5 1-216); test: fluorescence polarisation; 100 nM fluorescein-labelled peptide, increasing concentrations of GINS; 25 mM HEPES pH 7.5, 150 mM NaCl, 1 mM EDTA, 0.25 mM TCEP, 0.02% Tween 20; room temperature; conditions: both partners purified
T2 construct: Sld5 subunit of GINS; Psf1 subunit of GINS, with its B domain; Psf2 subunit of GINS; Psf3 subunit of GINS; A 3C site follows the His tag on Sld5; no cleavage is described; also called GINS tetramer; GINS complex; source: Sf9 insect cells, single baculovirus (pBig1a), purified (TALON, Superdex200); copies: + + +
T2 sequence (Q9BRT9 whole entry, chain 1 of 4): as the sequence (Q9BRT9 whole entry partner) above
T2 sequence (Q14691 whole entry, chain 2 of 4): as the sequence (Q14691 whole entry) above
T2 sequence (Q9Y248 whole entry, chain 3 of 4): as the sequence (Q9Y248 whole entry partner) above
T2 sequence (Q9BRX5 whole entry, chain 4 of 4): as the sequence (Q9BRX5 whole entry) above

GINS complex = test: Size exclusion chromatography co-elution with GINS; assay type: binding; conditions: Superdex200; 20 µM of each component; 10 mM HEPES pH 7.5, 150 mM NaCl, 0.5 mM TCEP
Experimental: Recombinant TopBP1 and GINS proteins were mixed in an equimolar ratio to give a final concentration of 20 µM of each component and incubated on ice for at least 30 min prior to application to a Superdex200increase 10 300 column (GE Healthcare, Little Chalfont, UK) equilibrated in 10 mM HEPES pH 7.5, 150 mM NaCl, 0.5 mM TCEP.

GINS = test: Pulldown of recombinant TopBP1-BRCT0-5 by immobilised GINS, 150 mM NaCl; assay type: binding; conditions: summary of recombinant protein interaction tests (yes/no)
Excerpt: Fig. 1 GINS and TopBP1 interact. a (i) Domain model of human (hs) TopBP1, its conservation with BRCT1/2 and 3/4 domains (grey boxes) of budding yeast Dpb11 (scDpb11). Arrows point to binding domains for interacting proteins. (ii) Overview of TopBP1 wild type (WT) and BRCT deletion (Δ) and point mutants. GINS binding capabilities are labelled in red and green. Numbers, amino acid position; capital letters indicate amino acid substitutions. Amino acid substitutions of point mutants in BRCT4 (B4mut) and 5 (B5mut) are coloured orange. b Elution profiles of size exclusion chromatography (Superdex200) of individual recombinant TopBP1-BRCT0-5 protein (grey) and GINS tetramers (green), or of both upon incubation (blue). c Recombinant GINS immobilised on Flag-beads and control beads (Flag peptide-coupled beads) were used to pull down recombinant TopBP1-0-5-WT or TopBP1-ΔBRCT4/5 (compare a(ii)). SDS gels were silver stained. kDa specifies molecular weight marker bands. The experiment was done more than three times with similar results. Source data are provided as a Source data file. TEXT PRINTED IN THE PICTURE: (a) BRCT0-5-WT: GINS binding? (rec. proteins): yes | (a) ΔBRCT4/5: GINS binding? (rec. proteins): no | (a) ΔBRCT3: GINS binding? (rec. proteins): yes | (a) ΔBRCT0/1/2: GINS binding? (rec. proteins): yes | (a) B5mut: GINS binding? (rec. proteins): yes | (a) B4mut: GINS binding? (rec. proteins): no
Fig. 2 Protein structure of the GINS-TopBP1-BRCT4/5 complex. a Structural model of the GINS-TopBP1-BRCT4/5 complex. Crystal structures of the GINS subunits (PDB:2E9X) (shades of green, yellow), and the central BRCT4/5 domain of TopBP1 (PDB:3UEN) (grey) were docked into the cryo-EM volume shown as transparent volume. b Zoom-in of the BRCT4-Psf1 interface. The residues in stick representation appear crucial for the interface. Mutations to break the interaction are coloured pink (Psf1-I97R) and purple (TopBP1-B4mut; compare Fig. 1a(ii)). c Pulldown of the indicated recombinant TopBP1-BRCT0-5-strep versions (see Fig. 1a(ii)) by Flag-beads-immobilised recombinant GINS or Flag peptide-coupled control beads. Analysis was done by immunoblotting. The experiment was done more than three times with similar results. d Pulldown of the indicated recombinant TopBP1-BRCT0-5-WT-strep using immobilised GINS-WT or GINS carrying a Ile97 to arginine mutation in Psf1.TopBP1-Gcc/B4mut-strep (Figs. 1a(ii) and 3a) was used as a non-GINS binding control. The experiment was done twice with similar results. Source data are provided as a Source data file.
Fig. 3 The conserved core of the TopBP1-GINI domain is required for a stable interaction with GINS. a Domain model and T-COFFEE alignment (one-letter aa code) of TopBP1 proteins from humans (Q92547) Xenopus laevis (Q7ZZY3), Bos taurus (A0A3Q1LWE4) and Rattus norvegicus (A0A8I6GFZ6). Coloured boxes indicate GINI region mutants in sub-regions I (blue), II (green) and III (orange), and in the GINI core helix (red) (details in Supplementary Fig. 7). Amino acid substitutions, names of GINI core region mutations and corresponding GINS binding capabilities are shown. ., : and * indicate low conservation, high conservation and identical amino acids, respectively. b/c Pulldown of recombinant TopBP1-BRCT0-5-strep-WT or the indicated GINI region mutants (a) by bead-immobilised GINS or Flag peptide-coupled control beads. Analysis was done by immunoblotting. The experiments were done more than three times with similar results. Source data are provided as a Source data file. d Fluorescence polarisation measurements including dissociation constants (kD) calculations using recombinant GINS tetramer and fluorescently labelled TopBP1-GINI-core peptides (WT or Gpp (a)). For each peptide n = 3 independent experiments and data are presented as mean values +/−SEM. TEXT PRINTED IN THE PICTURE: (a) TopBP1-Gcc: GINS binding? (rec. proteins): no | (a) TopBP1-Gcore: GINS binding? […]

Sequence of GINS (6xHis-3xFlag-Sld5, Psf1, Psf2, Psf3) for pulldown experiments (Q9BRT9 whole entry, chain 1 of 4): as the sequence (Q9BRT9 whole entry partner) above
Sequence of GINS (6xHis-3xFlag-Sld5, Psf1, Psf2, Psf3) for pulldown experiments (Q14691 whole entry, chain 2 of 4, further chain): as the sequence (Q14691 whole entry) above
Sequence of GINS (6xHis-3xFlag-Sld5, Psf1, Psf2, Psf3) for pulldown experiments (Q9Y248 whole entry, chain 3 of 4, further chain): as the sequence (Q9Y248 whole entry partner) above
Sequence of GINS (6xHis-3xFlag-Sld5, Psf1, Psf2, Psf3) for pulldown experiments (Q9BRX5 whole entry, chain 4 of 4, further chain): as the sequence (Q9BRX5 whole entry) above

Molecule: TopBP1-BRCT0-5-Gcc (from UniProt Q92547 1-766) (domain or fragment)
- reduction of nucleotide incorporation (α-32P-dCTP) in TopBP1-depleted Xenopus egg extract after add-back, 120 min time point [1]: 21%

Molecule: CC(C)C[C@H](NC(=O)[C@H](CC(=O)O)NC(=O)[C@H](CCC(=O)O)NC(=O)[C@H](CC(=O)O)NC(=O)[C@H](C)NC(=O)[C@H](CCC(N)=O)NC(=O)[C@H](CCC(=O)O)NC(=O)[C@H](Cc1c[nH]cn1)NC(=O)[C@H](CCCCN)NC(=O)[C@H](CCC(=O)O)NC(=O)[C@H](CO)NC(=O)[C@@H]1CCCN1C(=O)[C@H](C)NC(=O)CNC(=O)[C@H](Cc1ccc(O)cc1)NC(=O)CNC(=O)c1ccc2c(c1)C(=O)OC21c2ccc(O)cc2Oc2cc(O)ccc21)C(=O)N[C@@H](CC(C)C)C(=O)N[C@@H](CO)C(=O)N[C@@H](CCC(N)=O)C(=O)N[C@@H](Cc1ccc(O)cc1)C(=O)N[C@@H](CCC(=O)O)C(=O)N[C@@H](CC(N)=O)C(=O)NCC(=O)O [TOPBP1(478-497)] (5FAM-GYGAPSEKHEQADEDLLSQYENG-OH)
- Kd (GINS tetramer; fluorescein-labelled peptide 100 nM, increasing GINS, 25 mM HEPES pH 7.5, 150 mM NaCl, 1 mM EDTA, 0.25 mM TCEP, 0.02% Tween 20, n = 3 independent experiments, interval printed in figure (7.037 - 8.809), read-out: dissociation constant Kd (fluorescence polarisation)): 7.88 µM

Molecule: Flu-GYGAPSEKHEQADEDPPSQYENG [TOPBP1(478-497) L490P L491P, fluorescein-labelled GINI-core peptide with LL to PP mutation]
- binding to GINS by fluorescence polarisation (GINS tetramer; peptide 100 nM, 150 mM NaCl, n = 3): failed to bind

B1: fluorescently labelled GINI-core peptide (Ala478-Gly497), WT (peptide)
peptide: Flu-GYGAPSEKHEQADEDLLSQYENG
modifications: not fully specified; printed as Flu-GYGAPSEKHEQADEDLLSQYENG
notes: three residues printed before the TopBP1 stretch Ala478-Gly497; human TopBP1 GINI core, Ala478-Gly497; also called TopBP1-GINI-core peptide WT; source: synthetic peptide (Peptide Protein Research Ltd)
- Kd [2]: ~8 µM

B2: TopBP1-ΔBRCT0/1/2: TopBP1-BRCT0-5 with BRCT0-2 module removed (protein)
chain: NSLNSKLEPTLENLENLDVSAFQAPEDLLDGCRIYLCGFSGRKLDKLRRLINSGGGVRFNQLNEDVTHVIVGDYDDELKQFWNKSAHRPHVVGAKWLLECFSKGYMLSEEPYIHANYQPVEIPVSHKPESKAALLKKKNSSFSKKDFAPSEKHEQADEDLLSQYENGSSTVVEAKTSEARPFNDSTHAEPLNDSTHISLQEENQSSVSHCVPDVSTITEEGLFSQKSFLVLGFSNENESNIANIIKENAGKIMSLLSRTVADYAVVPLLGCEVEATVGEVVTNTWLVTCIDYQTLFDPKSNPLFTPVPVMTGMTPLEDCVISFSQCAGAEKESLTFLANLLGASVQEYFVRKSNAKKGMFASTHLILKERGGSKYEAAKKWNLPAVTIAWLLETARTGKRADESHFLIENSTKEERSLETEITNGINLNSDTAEHP
modifications: left off: His, N-terminal, state not stated | Strep, C-terminal, state not stated
notes: TopBP1-BRCT0-5 with BRCT0-2 module removed
- co-elution with GINS from size exclusion column (GINS complex): did not affect binding
- GINS binding? (rec. proteins) (GINS): yes
